Assay results taken from PMC10436073, “Saccharomyces cerevisiae NRE1 and IRC24 Encode Paralogous Benzil Oxidoreductases” (microPublication Biology, 2023).

Substrate: O=C(C(=O)c1ccccc1)c1ccccc1
Assay: purified protein
Format: biochemical, Saccharomyces cerevisiae
Settings: NADPH 0.075 mM (preferred cofactor; NADH also measured), 10 mM Tris-HCl pH 8.0, 30 C, apparent Km

B1: Irc24p (Saccharomyces cerevisiae S288C) (protein)
chain: MGKVILITGASRGIGLQLVKTVIEEDDECIVYGVARTEAGLQSLQREYGADKFVYRVLDITDRSRMEALVEEIRQKHGKLDGIVANAGMLEPVKSISQSNSEHDIKQWERLFDVNFFSIVSLVALCLPLLKSSPFVGNIVFVSSGASVKPYNGWSAYGCSKAALNHFAMDIASEEPSDKVRAVCIAPGVVDTQMQKDIRETLGPQGMTPKALERFTQLYKTSSLLDPKVPAAVLAQLVLKGIPDSLNGQYLRYNDERLGPVQG
Km: 420 µM

B2: Nre1p (Saccharomyces cerevisiae S288C) (protein)
chain: MGKVILVTGVSRGIGKSIVDVLFSLDKDTVVYGVARSEAPLKKLKEKYGDRFFYVVGDITEDSVLKQLVNAAVKGHGKIDSLVANAGVLEPVQNVNEIDVNAWKKLYDINFFSIVSLVGIALPELKKTNGNVVFVSSDACNMYFSSWGAYGSSKAALNHFAMTLANEERQVKAIAVAPGIVDTDMQVNIRENVGPSSMSAEQLKMFRGLKENNQLLDSSVPATVYAKLALHGIPDGVNGQYLSYNDPALADFMP
Km: 390 µM
